Laboratory results reported in article PMC12700550, “DLL4^+ neutrophils promote Notch1-mediated endothelial PANoptosis to exacerbate acute lung injury in sepsis” (The Journal of Clinical Investigation, 2025).
Values joined by “and” are separate entries in the source; they are usually repeats but may differ in a detail not shown here. Equal entries are not always repeated.

Assays:
[1] = test system: IL-6; assay: Serum IL-6, CLP mice, ELISA; format: in vivo, mouse; conditions: DLL4^+ neutrophil-injected CLP mice, 10 mg/kg, 20 h
Experimental: (§1) Sepsis was induced in mice by cecal ligation and puncture (CLP) as described previously ([45], [46]). Mice were anesthetized with isoflurane to a surgical plane and placed in a supine position. CLP was performed through a midline laparotomy. The abdomen was shaved and disinfected. Through a 2 cm midline incision, the cecum was exposed and then ligated with a 4-0 silk suture 1 cm proximal from the distal cecal extremity. For 20-hour CLP experiments, the cecum was punctured twice with a 22-gauge needle. A small amount of cecal content was extruded through both holes, and the ligated cecum was returned to the peritoneal cavity. The wound was closed in layers. For 10-day sepsis survival studies, the cecum was punctured once with a 22-gauge needle. A small amount of cecal content was extruded. Mice were allocated to the vehicle and adoptive transfer of DLL4^+ neutrophils or DLL4^– neutrophils groups. […]
Blood was collected by heart puncture and centrifuged at 1,500g and 4°C for 10 minutes, and the plasma was separated to assess cytokine levels using enzyme-linked immunosorbent assay (ELISA) kits (BD Biosciences). The plasma TNF-α (catalog 558534) and IL-6 (catalog 555240) levels were measured by ELISA.

[2] = test system: KC; assay: Lung keratinocyte chemoattractant (KC) mRNA, CLP mice; format: in vivo, mouse; conditions: 20 h; for lung KC mRNA (Figure 6H): 10 mg/kg NDI, vs sham, individual mice
Experimental: Sepsis was induced in mice by cecal ligation and puncture (CLP) as described previously ([45], [46]). Mice were anesthetized with isoflurane to a surgical plane and placed in a supine position. CLP was performed through a midline laparotomy. The abdomen was shaved and disinfected. Through a 2 cm midline incision, the cecum was exposed and then ligated with a 4-0 silk suture 1 cm proximal from the distal cecal extremity. For 20-hour CLP experiments, the cecum was punctured twice with a 22-gauge needle. A small amount of cecal content was extruded through both holes, and the ligated cecum was returned to the peritoneal cavity. The wound was closed in layers. For 10-day sepsis survival studies, the cecum was punctured once with a 22-gauge needle. A small amount of cecal content was extruded. Mice were allocated to the vehicle and adoptive transfer of DLL4^+ neutrophils or DLL4^– neutrophils groups. Adoptive transfer mice received a retro-orbital injection of 1 × 10^6 cells per mouse DLL4^+ neutrophils or DLL4^– neutrophils in […] phosphate-buffered saline (PBS) immediately after abdominal closure in both the 20-hour experiments and the survival study. Vehicle groups received an equivalent volume of PBS, while treatment groups received NDI 10 mg/kg in […] PBS via retro-orbital injection after CLP. This dose was chosen primarily on the basis of our laboratory’s prior experience, we have consistently used this dose in mouse CLP models with reproducible efficacy and without observable toxicity ([39], [44]). Sham-operated animals underwent a laparotomy without CLP. After closure, the mice received a subcutaneous injection of 0.5 mL of normal saline to overcome surgery-induced dehydration. For 20-hour experiments, animals were not injected with antibiotics; however, for survival studies, animals were given 0.5 mg per kg body weight imipenem (lot 4D21K05, WG Critical Care LLC) subcutaneously in 0.5 mL saline once at the end of CLP. All mice were subcutaneously injected with a single dose of 0.1 mg/kg buprenorphine after CLP. […]

[3] = test system: ZBP1; assay: ZBP1 in pulmonary endothelial cells (CD31) of CLP mice, confocal immunofluorescence; format: in vivo, mouse; conditions: sepsis, 10 mg/kg NDI, 20 h
Experimental: as §1, with “groups. Adoptive transfer mice received a retro-orbital injection of 1 × 10^6 cells per mouse DLL4^+ neutrophils or DLL4^– neutrophils in […] phosphate-buffered saline (PBS) immediately after abdominal closure in both the 20-hour experiments and the survival study.” for “groups.”
For immunohistochemistry staining, paraffin-embedded lung tissue sections were deparaffinized and dewaxed in xylene and a series of ethanol. […] The images were analyzed with ImageJ Fiji (NIH).

[4] = test system: C57BL/6 mice, CLP sepsis; assay: Evans blue dye lung extravasation, CLP mice; format: in vivo, mouse; conditions: 20 h; for Evans blue dye, EBD/dry lung tissue (Figure 6L): 10 mg/kg NDI, EBD 20 mg/kg, individual mice
Experimental: Sepsis was induced in mice by cecal ligation and puncture (CLP) as described previously ([45], [46]). Mice were anesthetized with isoflurane to a surgical plane and placed in a supine position. CLP was performed through a midline laparotomy. The abdomen was shaved and disinfected. Through a 2 cm midline incision, the cecum was exposed and then ligated with a 4-0 silk suture 1 cm proximal from the distal cecal extremity. […] A small amount of cecal content was extruded through both holes, and the ligated cecum was returned to the peritoneal cavity. The wound was closed in layers. […] A small amount of cecal content was extruded. […] Vehicle groups received an equivalent volume of PBS, while treatment groups received NDI 10 mg/kg in […] PBS via retro-orbital injection after CLP. This dose was chosen primarily on the basis of our laboratory’s prior experience, we have consistently used this dose in mouse CLP models with reproducible efficacy and without observable toxicity ([39], [44]). Sham-operated animals underwent a laparotomy without CLP. After closure, the mice received a subcutaneous injection of 0.5 mL of normal saline to overcome surgery-induced dehydration. […] All mice were subcutaneously injected with a single dose of 0.1 mg/kg buprenorphine after CLP. Lung vascular leakage was quantified using the Evans blue dye–labeled (EBD-labeled) albumin extravasation assay ([48]). […] Sigma-Aldrich) via retro-orbital injection. […] The whole lung was dehydrated for 48 hours at 60°C, immersed in formamide (1 mL/g wet weight; Sigma-Aldrich) at 37°C for 48 hours, and centrifuged at 5,000g for 30 minutes. The amount of extracted EBD in the supernatant was quantified by spectrophotometry. The concentration of extravasated EBD-albumin in lung homogenates was expressed as nanograms EBD per milligram of dry lung tissue. Lung water content was calculated as (wet weight – dry weight)/wet weight %.

[5] = test system: DLL1; assay: DLL1 mRNA in eCIRP-treated BMDNs, qPCR; format: cell-based, mouse; conditions: for DLL1 mRNA: DLL1-CIRP
Experimental: mRNA was extracted from lung tissues with TRIzol reagent (Invitrogen, Thermo Fisher Scientific). An equal amount ([…]) of mRNA was reverse-transcribed into cDNA using the reverse transcriptase enzyme (Invitrogen, Thermo Fisher Scientific). qPCR was performed from the diluted cDNA templates with forward and reverse primers (Supplemental Table 4) and SYBR Green PCR Master Mix (Applied Biosystems, Thermo Fisher Scientific) using an Applied Biosystems 7300 real-time PCR machine. Mouse β-actin served as an internal control gene for normalization. Relative expression of mRNA was represented as fold change in comparison with the sham group.
BMDNs (1 × 10^6) were treated with eCIRP (1 μg/mL) for 12 hours, and DLL1, DLL3, and DLL4 were analyzed by qPCR.

[6] = DLL4^+ neutrophil-injected CLP mice, 10 mg/kg

## ECAGSPCHNGGTCEDGI [NDI]
[1]
  effect on serum IL-6: significantly reduced the serum levels of hepatic and cell injury markers and proinflammatory cytokines
[2]; [6]
  effect on lung KC mRNA: significantly decreased the mRNA expression of TNF-α, IL-6, and KC in lung tissues
[2]; DLL4^+ neutrophils + CLP
  lung KC mRNA (Figure 6H): 5.903 fold change and 0.6661 fold change and 4.862 fold change and 4.727 fold change and 4.686 fold change and 3.906 fold change and 2.6276 fold change and 0.3013 fold change and 7.635 fold change and 2.927 fold change and 2.999 fold change and 5.493 fold change and 8.856 fold change and 7.751 fold change and 5.829 fold change and 6.917 fold change
[2]; DLL4^– neutrophils + CLP
  lung KC mRNA (Figure 6H): 5.187 fold change and 6.094 fold change and 6.9598 fold change and 7.18 fold change and 9.417 fold change and 3.542 fold change and 4.905 fold change and 5.1155 fold change and 3.48 fold change and 3.364 fold change
[3]
  effect on ZBP1 in pulmonary endothelial cells, immunostaining: reduced ZBP1 expression in pulmonary endothelial cells in sepsis
[4]; [6]
  effect on Evans blue dye content: significantly attenuated these effects, reducing both lung water content and Evans blue dye content
[4]; DLL4^+ neutrophils + CLP
  Evans blue dye, EBD/dry lung tissue (Figure 6L): 94.3739 nanograms EBD per milligram of dry lung tissue and 81.6499 nanograms EBD per milligram of dry lung tissue and 102.841 nanograms EBD per milligram of dry lung tissue and 95.8364 nanograms EBD per milligram of dry lung tissue and 67.7799 nanograms EBD per milligram of dry lung tissue and 56.8397 nanograms EBD per milligram of dry lung tissue and 66.2061 nanograms EBD per milligram of dry lung tissue and 49.7845 nanograms EBD per milligram of dry lung tissue and 71.2396 nanograms EBD per milligram of dry lung tissue
[4]; DLL4^– neutrophils + CLP
  Evans blue dye, EBD/dry lung tissue (Figure 6L): 62.3234 nanograms EBD per milligram of dry lung tissue and 74.8524 nanograms EBD per milligram of dry lung tissue and 79.6398 nanograms EBD per milligram of dry lung tissue and 73.406 nanograms EBD per milligram of dry lung tissue and 63.9328 nanograms EBD per milligram of dry lung tissue and 50.0167 nanograms EBD per milligram of dry lung tissue and 66.1099 nanograms EBD per milligram of dry lung tissue and 61.0318 nanograms EBD per milligram of dry lung tissue and 57.5122 nanograms EBD per milligram of dry lung tissue

B1: eCIRP: extracellular cold-inducible RNA-binding protein; recombinant murine, produced in our laboratory (protein, UniProt P60824 1-172, looked up)
Cold-inducible RNA-binding …: MASDEGKLFVGGLSFDTNEQALEQVFSKYGQISEVVVVKDRETQRSRGFGFVTFENIDDAKDAMMAMNGKSVDGRQIRVDQAGKSSDNRSRGYRGGSAGGRGFFRGGRSRGRGFSRGGGDRGYGGGRFESRSGGYGGSRDYYASRSQGGSYGYRSSGGSYRDSYDSYATHNE
[5]; BMDNs, eCIRP 1 μg/mL, 12 h
  effect on DLL1 expression: no significant induction of DLL1 or DLL3
[5]; replicate 1
  DLL1 mRNA: 0.838
[5]; replicate 2
  DLL1 mRNA: 0.9002
[5]; replicate 3
  DLL1 mRNA: 1.276
[5]; replicate 4
  DLL1 mRNA: 1.001
[5]; replicate 5
  DLL1 mRNA: 0.5711
[5]; replicate 6
  DLL1 mRNA: 0.6454
[5]; replicate 7
  DLL1 mRNA: 0.3425
[5]; replicate 8
  DLL1 mRNA: 0.4208
